Test results as given in patent publication US20240400677A1 (ELECTRA THERAPEUTICS, published 2024).
Positions count from the first letter of the chain named.

T1: cynomolgus monkey SIRPγ-His monomer protein (cynomolgus monkey, UniProt Q9P1W8 29-359 (human entry), limits assumed)
T1 construct: also called Cyno SIRPγ; Cyno SIRPγ-His
T1 chain: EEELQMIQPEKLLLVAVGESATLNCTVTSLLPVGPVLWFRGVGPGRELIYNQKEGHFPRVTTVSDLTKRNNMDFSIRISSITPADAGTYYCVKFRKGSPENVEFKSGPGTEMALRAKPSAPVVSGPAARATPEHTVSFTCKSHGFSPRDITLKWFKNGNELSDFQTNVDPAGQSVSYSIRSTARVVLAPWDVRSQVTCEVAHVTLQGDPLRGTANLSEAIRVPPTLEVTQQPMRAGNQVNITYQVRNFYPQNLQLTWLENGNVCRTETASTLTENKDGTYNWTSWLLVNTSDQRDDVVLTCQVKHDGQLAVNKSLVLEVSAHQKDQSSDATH

T2: cynomolgus monkey SIRPγ on CHO cells (cynomolgus monkey, UniProt Q9P1W8 29-386 (human entry))
T2 construct: also called Cyno SIRPγ CHO
T2 chain: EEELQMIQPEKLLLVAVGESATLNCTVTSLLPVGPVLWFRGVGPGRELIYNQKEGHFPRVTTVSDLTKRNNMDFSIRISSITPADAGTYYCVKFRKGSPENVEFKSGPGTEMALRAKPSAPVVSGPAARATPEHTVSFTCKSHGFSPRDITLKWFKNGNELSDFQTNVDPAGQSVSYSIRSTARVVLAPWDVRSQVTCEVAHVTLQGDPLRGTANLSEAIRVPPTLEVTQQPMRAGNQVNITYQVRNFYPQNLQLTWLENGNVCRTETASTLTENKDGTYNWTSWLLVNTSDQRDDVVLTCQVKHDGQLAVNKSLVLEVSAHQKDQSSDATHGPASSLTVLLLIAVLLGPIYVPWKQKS

T3: cynomolgus monkey SIRPα on CHO cells (cynomolgus monkey, UniProt A0A2K5VYQ9 31-507)
T3 construct: whole, on cells; also called Cyno SIRPα CHO
T3 sequence: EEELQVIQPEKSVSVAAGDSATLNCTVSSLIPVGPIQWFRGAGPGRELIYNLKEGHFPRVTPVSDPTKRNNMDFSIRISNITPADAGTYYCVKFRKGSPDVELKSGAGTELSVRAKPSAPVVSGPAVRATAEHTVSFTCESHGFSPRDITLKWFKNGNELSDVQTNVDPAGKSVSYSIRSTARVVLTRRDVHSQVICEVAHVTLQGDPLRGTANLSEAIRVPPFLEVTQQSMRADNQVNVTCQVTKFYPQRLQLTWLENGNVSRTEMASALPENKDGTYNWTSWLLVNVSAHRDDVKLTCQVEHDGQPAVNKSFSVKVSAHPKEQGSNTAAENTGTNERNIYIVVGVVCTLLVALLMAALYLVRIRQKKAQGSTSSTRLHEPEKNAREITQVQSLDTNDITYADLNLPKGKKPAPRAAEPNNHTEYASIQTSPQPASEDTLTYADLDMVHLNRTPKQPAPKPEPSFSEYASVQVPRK

T4: Cynomolgus Monkey SIRPγ (plate-coated extracellular domain)
T4 construct: also called Cyno SIRPγ
T4 extracellular domain: T1 chain

B1: Antibody 86 (antibody, V domains shown)
VH: EVQLLESGGGLVQPGGSLRLSCAASGFTLGSYWMHWVRQAPGKGLEWVSLISWDGGSTYYADSVKGRFTISRDNSKNTLYLQMNSLRAEDTAVYYCAKGPWVGYSGYDLNYYYYGMDVWGQGTTVTVSS
VL: DIQMTQSPSSLSASVGDRVTITCRASQDIRRALAWYQQKPGKAPKLLIYAASSLQSGVPSRFSGSGSGTDFTLTISSLQPEDFATYYCLQHNSYPPTFGQGTKLEIK
B2: Antibody 89 (antibody, V domains shown)
VH: QVQLVQSGAEVKKPGASVKVSCKASGGTFSSYAISWVRQAPGQGLEWMGIINPSSSSTGYAQKFQGRVTMTRDTSTSTVYMELSSLRSEDTAVYYCARAGYYDSSGYYYSPYYGMDVWGQGTTVTVSS
VL: EIVMTQSPATLSVSPGERATLSCRASQSISGSYLAWYQQKPGQAPRLLIYGASTRATGIPARFSGSGSGTEFTLTISSLQSEDFAVYYCQQYGSFPFTFGPGTKVDIK
B3: Antibody 92 (antibody, V domains shown)
VH: QVQLVQSGAEVKKPGASVKVSCKASGGTFSSYDINWVRQAPGQGLEWMGWMNPNSGNTGYAQKFQGRVTMTRDTSTSTVYMELSSLRSEDTAVYYCARDLTLYCSSTSCLDAFDYWGQGTLVTVSS
VL: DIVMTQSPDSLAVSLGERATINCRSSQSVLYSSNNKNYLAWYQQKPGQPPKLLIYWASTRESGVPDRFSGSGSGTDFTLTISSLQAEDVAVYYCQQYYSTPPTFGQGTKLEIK
B4: Antibody 85 (antibody, V domains shown)
VH: B3 VH with G27Y, S30T, D99E, L100S, T101Y, L102A, L110Y, Y115I, L121M
VL: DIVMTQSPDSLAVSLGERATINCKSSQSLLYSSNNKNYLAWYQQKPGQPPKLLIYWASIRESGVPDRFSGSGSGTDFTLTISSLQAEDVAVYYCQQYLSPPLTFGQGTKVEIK
B5: Antibody 57 (antibody, V domains shown)
VH: QVQLVQSGAEVKKPGASVKVSCKASGYTFTSYYMHWVRQAPGQGLEWMGWINPNSGNAGFAQKFQGRVTMTRDTSTSTVYMELSSLRSEDTAVYYCARGPVYSYGPFDYWGQGTLVTVSS
VL: DIQMTQSPSSLSASVGDRVTITCRASQGISTYLAWYQQKPGKAPKLLIYAASTLQSGVPSRFSGSGSGTDFTLTISSLQPEDFATYYCQQSHSAPITFGQGTKVEIK
B6: Antibody 82 (antibody, V domains shown)
VH: QVQLVQSGAEVKKPGASVKVSCKASGHTFNNNYIHWVRQAPGQGLEWMGIINPSGGSTSYAQKFQGRVTMTRDTSTSTVYMELSSLRSEDTAVYYCARQIQDYGYYYYGMDVWGQGTTVTVSS
VL: EIVMTQSPATLSVSPGERATLSCRASQSVSKYLAWYQQKPGQAPRLLIYAISARAAGIPARFSGSGSGTEFTLTISSLQSEDFAVYYCQQYYSSPPTFGQGTKVEIK
B7: Antibody 79 (antibody, V domains shown)
VH: QVQLVQSGAEVKKPGASVKVSCKASGYTFTSYYMHWVRQAPGQGLEWMGWMNPNSGNTGYAQKFQGRVTMTRDTSTSTVYMELSSLRSEDTAVYYCARDQMYSSYGMDVWGQGTTVTVSS
VL: DIQMTQSPSSLSASVGDRVTITCRASESITNWLAWYQQKPGKAPKLLIYKASSLESGVPSRFSGSGSGTDFTLTISSLQPEDFATYYCQQSYGTPYTFGQGTKVEIK
B8: Antibody 69 (antibody, V domains shown)
VH: QVQLVQSGAEVKKPGASVKVSCKASGYTFTSYYMHWVRQAPGQGLEWMGWMNPNSDNTGYAQKFQGRVTMTRDTSTSTVYMELSSLRSEDTAVYYCARVGVGYGYYYYGMDVWGQGTTVTVSS
VL: B5 VL with S26G, G28S, S30G, T31D, A34N, T53S, H92Y, A94T, I96W
B9: Antibody 71 (antibody, V domains shown)
VH: QVQLVQSGAEVKKPGASVKVSCKASGYTFTSYYIHWVRQAPGQGLEWMGTINPSGGSTSYAQKFQGRVTMTRDTSTSTVYMELSSLRSEDTAVYYCARETSRWLRDYYYGMDVWGQGTTVTVSS
VL: DIVMTQSPLSLPVTPGEPASISCRSSQSLLHSNGYNYLDWYLQKPGQSPQLLIYDASSLESGVPDRFSGSGSGTDFTLKISRVEAEDVGVYYCMQGTHWPLTFGGGTKVEIK
B10: Antibody 73 (antibody, V domains shown)
VH: B3 VH
VL: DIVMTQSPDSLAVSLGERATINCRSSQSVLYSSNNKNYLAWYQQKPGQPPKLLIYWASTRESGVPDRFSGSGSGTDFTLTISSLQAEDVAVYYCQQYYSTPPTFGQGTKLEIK

target: T5, human SIRPγ-His monomer protein (human, UniProt Q9P1W8 29-360); test: BLI Octet, antibody on AHC, global 1:2 model
T5 construct: also called hSIRPγ
Method: (§1) Antibodies were coated onto anti-human Fc capture (AHC) biosensors. SIRP-His monomer protein or bivalent SIRP protein with mouse Fc at four concentrations (200 nM, 100 nM, 50 nM, 25 nM) were exposed to the biosensor to measure on-rate kinetics of SIRP antibodies binding to SIRP protein. The biosensors were then exposed to wash buffer to measure off-rate kinetics. The resulting kinetic data were analyzed and fitted using a global 1:2 binding model.

T5 sequence (Q9P1W8 29-360 limits assumed): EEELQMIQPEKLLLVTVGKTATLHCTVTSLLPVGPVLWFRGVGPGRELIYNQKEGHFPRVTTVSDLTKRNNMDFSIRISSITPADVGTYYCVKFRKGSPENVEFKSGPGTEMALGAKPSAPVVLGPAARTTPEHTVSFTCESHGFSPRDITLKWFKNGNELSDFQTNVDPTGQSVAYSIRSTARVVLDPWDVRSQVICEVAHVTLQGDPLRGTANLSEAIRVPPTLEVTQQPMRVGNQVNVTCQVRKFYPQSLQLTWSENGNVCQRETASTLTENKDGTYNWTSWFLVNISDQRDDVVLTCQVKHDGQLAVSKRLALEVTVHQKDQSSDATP

Row | Kd [nM] | Binder
1 | 56.1 | B1
2 | 297 | B2
3 | 12.3 | B3
4 | 96.9 | B4

Target: T1, cynomolgus monkey SIRPγ-His monomer …
Test: BLI Octet, antibody on AHC, global 1:2 model
Method: as §1

Row | Kd [nM] | Binder
5 | 48.2 | B1
6 | 26.2 | B2
7 | 2960 | B3
8 | 96.1 | B4

target: T6, bivalent human SIRPγ protein with mouse Fc (human, UniProt Q9P1W8 29-360); test: BLI Octet, antibody on AHC, global 1:2 model
T6 construct: also called Human SIRPγ-mFc
Method: as §1

T6 sequence (Q9P1W8 29-360 limits assumed): as above

Row | Kd [nM] | Binder
9 | 3.92 | B1
10 | 1320 | B2
11 | 9.03 | B3
12 | 35.6 | B4

Target: T2, cynomolgus monkey SIRPγ on CHO cells
Test: flow cytometry, CHO transfectants, anti-human IgG
In short: (§2)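 Flow cytometry on stable CHO transfectants; antibody titration; fluorescent anti-human IgG detection; MFI per concentration. myc-tagged scFv: crude PPE on SIRP-expressing CHO and parental CHO-K1; fold change <2.0 = non-binder.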

Row | EC50 (read off the curve) [µg/mL] | Binder
13 | ~0.4 | B5
14 | ~0.7 | B6
15 | ~0.5 | B7
16 | ~0.6 | B8

target: T3, cynomolgus monkey SIRPα on CHO cells; test: flow cytometry, CHO transfectants, anti-human IgG
In short: as §2

Row | binding result | Binder
17 | no binding (tested: about 20 µg/mL) | B9
18 | no binding (tested: about 20 µg/mL) | B5
19 | no binding (tested: about 20 µg/mL) | B6
20 | no binding (tested: about 30 µg/mL) | B2
21 | no binding (tested: about 20 µg/mL) | B7
22 | no binding (tested: about 20 µg/mL) | B8
23 | no binding (tested: about 20 µg/mL) | B10
24 | no binding (tested: about 30 µg/mL) | B3
25 | no binding (tested: about 30 µg/mL) | B4

target: T7, human SIRPβ1 on CHO cells (co-transfected with DAP12) (human, UniProt O00241 30-398); test: flow cytometry, CHO transfectants, anti-human IgG
T7 construct: whole, on cells; co-transfected with DAP12; also called Human SIRPβ1 CHO
In short: as §2

T7 sequence (O00241 30-398): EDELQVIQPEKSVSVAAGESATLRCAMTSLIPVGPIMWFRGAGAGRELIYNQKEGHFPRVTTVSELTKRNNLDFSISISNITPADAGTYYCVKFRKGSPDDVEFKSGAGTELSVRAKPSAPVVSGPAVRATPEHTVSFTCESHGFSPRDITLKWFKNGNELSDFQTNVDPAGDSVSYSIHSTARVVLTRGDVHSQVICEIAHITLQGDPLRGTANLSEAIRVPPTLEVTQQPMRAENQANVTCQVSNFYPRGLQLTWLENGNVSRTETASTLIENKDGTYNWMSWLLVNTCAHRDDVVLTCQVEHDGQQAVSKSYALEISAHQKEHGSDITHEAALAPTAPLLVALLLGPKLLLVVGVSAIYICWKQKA

Row | binding result | Binder
26 | no binding (tested: about 20 µg/mL) | B5
27 | no binding (tested: about 20 µg/mL) | B6
28 | no binding (tested: about 30 µg/mL) | B2
29 | no binding (tested: about 20 µg/mL) | B7
30 | no binding (tested: about 20 µg/mL) | B8
31 | no binding (tested: about 20 µg/mL) | B10
32 | no binding (tested: about 30 µg/mL) | B3
33 | no binding (tested: about 30 µg/mL) | B4

target: T8, human SIRPγ on stably transfected CHO cells (human, UniProt Q9P1W8 29-387); test: flow cytometry, CHO transfectants, anti-human IgG
T8 construct: also called Human SIRPγ CHO
In short: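 Read-out is median fluorescence intensity for each antibody concentration, measured after a titration series is bound to stably transfected CHO cells and stained with labelled anti-human IgG. The scFv data come from myc-tagged crude PPE, also run on parental CHO-K1, where fold change below 2.0 denotes no binding.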

T8 sequence (Q9P1W8 29-387 limits assumed): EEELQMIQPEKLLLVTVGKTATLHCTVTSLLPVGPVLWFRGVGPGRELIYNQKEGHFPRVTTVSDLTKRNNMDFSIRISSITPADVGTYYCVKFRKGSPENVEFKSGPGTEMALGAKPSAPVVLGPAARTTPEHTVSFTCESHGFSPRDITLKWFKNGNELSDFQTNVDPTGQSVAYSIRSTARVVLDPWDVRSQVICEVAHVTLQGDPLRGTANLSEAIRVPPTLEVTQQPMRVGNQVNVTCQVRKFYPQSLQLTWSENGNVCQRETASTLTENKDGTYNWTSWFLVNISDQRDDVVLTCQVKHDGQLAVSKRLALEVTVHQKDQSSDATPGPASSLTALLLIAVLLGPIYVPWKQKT

Row | EC50 (read off the curve) [µg/mL] | Binder
34 | ~0.1 | B9
35 | ~0.6 | B5
36 | ~0.5 | B8
37 | ~0.5 | B10

Target: T4, Cynomolgus Monkey SIRPγ (plate-coated …)
Test: ELISA, coated SIRP ECD (2 µg/mL), anti-human IgG, luminescence
Method: (§3) Selected hybridoma supernatants of Example 1 were tested for binding to human SIRPγ, cynomolgus monkey SIRPγ, human SIRPα V1, cynomolgus monkey SIRPα, human SIRPβ1, and cynomolgus monkey SIRPβ1 by enzyme-linked immunosorbent assay (ELISA). Briefly, 2 μg/mL of the extracellular domain of SIRP protein was coated onto high protein-binding plates and blocked. Undiluted supernatants were added to coated plates. The antibodies were detected by an anti-rat antibody and a chemiluminescent substrate. […] The data depict the relative luminescence units read by a plate-reader capable of detecting chemiluminescence.
(§4) FIGS. 2A-2G show binding curves of SIRPγ antibodies and human Fc isotype controls to human SIRPγ, cynomolgus monkey SIRPγ, human SIRPα V1, human SIRPα V2, and human SIRPβ1 by ELISA. […] Isotype control 2 was an unrelated human IgG1 antibody with irrelevant CDRs with no modifications in the Fc region. DNA was transiently transfected into Expi293F cells for 5 days. Antibodies were purified by Protein A from cell supernatants and analyzed in a titration via ELISA as previously described in FIG. 1 using an anti-human IgG antibody as the detection antibody.

Row | EC50 (read off the curve) [µg/mL] | Binder
38 | ~0.02 | B9
39 | ~0.03 | B6
40 | ~0.2 | B2
41 | ~0.06 | B7
42 | ~0.05 | B10

target: T9, extracellular binding domain of human SIRPγ (plate-coated) (human, UniProt Q9P1W8 29-360); test: as above
T9 construct: also called hSIRPγ
Method: as §3, §4

T9 sequence (Q9P1W8 29-360 limits assumed): as the sequence (Q9P1W8 29-360 limits assumed) above

Row | EC50 (read off the curve) [µg/mL] | Binder
43 | ~0.02 | B9
44 | ~0.01 | B6
45 | ~0.3 | B2
46 | ~0.03 | B7
47 | ~0.03 | B10
